What was measured:
[1] = target: T1, native rVWF 133P1 (human, UniProt P04275 764-2813); assay: SPR (Biacore 3000): native rVWF 133P1 immobilized on CM5 chip, FVIII sample in flow, 1:1 Langmuir model
T1 construct: mature; Starting material for PEGylation; multimers of the mature monomer (about 260 kDa on reducing SDS-PAGE); also called unmodified rVWF

[2] = target: activated factor IX (FIXa); assay: cell-based or functional assay

Kd [1]: 0.55 nM
lag phase (min), FIXa-cofactor activity after thrombin activation [2]: 1.13 min
lag phase (min), FIXa-cofactor activity without thrombin activation [2]: 1.8 min
maximum FXa (nM), FIXa-cofactor activity after thrombin activation [2]: 33.7 nM
maximum FXa (nM), FIXa-cofactor activity without thrombin activation [2]: 39.6 nM
maximum rate (nM FXa/min), FIXa-cofactor activity after thrombin activation [2]: 9.79 nM FXa/min
maximum rate (nM FXa/min), FIXa-cofactor activity without thrombin activation [2]: 8.8 nM FXa/min
t1/2 of maximum (min), FIXa-cofactor activity after thrombin activation [2]: 2.85 min
t1/2 of maximum (min), FIXa-cofactor activity without thrombin activation [2]: 4 min
B1: FVIII control (mock preparation, not PEGylated) (other)
chain: ATRRYYLGAVELSWDYMQSDLGELPVDARFPPRVPKSFPFNTSVVYKKTLFVEFTDHLFNIAKPRPPWMGLLGPTIQAEVYDTVVITLKNMASHPVSLHAVGVSYWKASEGAEYDDQTSQREKEDDKVFPGGSHTYVWQVLKENGPMASDPLCLTYSYLSHVDLVKDLNSGLIGALLVCREGSLAKEKTQTLHKFILLFAVFDEGKSWHSETKNSLMQDRDAASARAWPKMHTVNGYVNRSLPGLIGCHRKSVYWHVIGMGTTPEVHSIFLEGHTFLVRNHRQASLEISPITFLTAQTLLMDLGQFLLFCHISSHQHDGMEAYVKVDSCPEEPQLRMKNNEEAEDYDDDLTDSEMDVVRFDDDNSPSFIQIRSVAKKHPKTWVHYIAAEEEDWDYAPLVLAPDDRSYKSQYLNNGPQRIGRKYKKVRFMAYTDETFKTREAIQHESGILGPLLYGEVGDTLLIIFKNQASRPYNIYPHGITDVRPLYSRRLPKGVKHLKDFPILPGEIFKYKWTVTVEDGPTKSDPRCLTRYYSSFVNMERDLASGLIGPLLICYKESVDQRGNQIMSDKRNVILFSVFDENRSWYLTENIQRFLPNPAGVQLEDPEFQASNIMHSINGYVFDSLQLSVCLHEVAYWYILSIGAQTDFLSVFFSGYTFKHKMVYEDTLTLFPFSGETVFMSMENPGLWILGCHNSDFRNRGMTALLKVSSCDKNTGDYYEDSYEDISAYLLSKNNAIEPRSFSQNSRHPSQNPPVLKRHQREITRTTLQSDQEEIDYDDTISVEMKKEDFDIYDEDENQSPRSFQKKTRHYFIAAVERLWDYGMSSSPHVLRNRAQSGSVPQFKKVVFQEFTDGSFTQPLYRGELNEHLGLLGPYIRAEVEDNIMVTFRNQASRPYSFYSSLISYEEDQRQGAEPRKNFVKPNETKTYFWKVQHHMAPTKDEFDCKAWAYFSDVDLEKDVHSGLIGPLLVCHTNTLNPAHGRQVTVQEFALFFTIFDETKSWYFTENMERNCRAPCNIQMEDPTFKENYRFHAINGYIMDTLPGLVMAQDQRIRWYLLSMGSNENIHSIHFSGHVFTVRKKEEYKMALYNLYPGVFETVEMLPSKAGIWRVECLIGEHLHAGMSTLFLVYSNKCQTPLGMASGHIRDFQITASGQYGQWAPKLARLHYSGSINAWSTKEPFSWIKVDLLAPMIIHGIKTQGARQKFSSLYISQFIIMYSLDGKKWQTYRGNSTGTLMVFFGNVDSSGIKHNIFNPPIIARYIRLHPTHYSIRSTLRMELMGCDLNSCSMPLGMESKAISDAQITASSYFTNMFATWSPSKARLHLQGRSNAWRPQVNNPKEWLQVDFQKTMKVTGVTTQGVKSLLTSMYVKEFLISSSQDGHQWTLFFQNGKVKVFQGNQDSFTPVVNSLDPPLLTRYLRIHPQSWVHQIALRMEVLGCEAQDLY
